B1: glmS ribozyme (parent)
chain: AUAAAAGCGCCAGAACUACAGAAAUGUAGUUGACGAGGAGGAGGUUUAUCGAAUUUUCGGCGGAUGCCUCCAAA

± gives the standard error. For some of these results: Variants at the floor of the assay were thinned out.

Conditions in all cases: with glucosamine-6-phosphate
In data set [1] the parent is B1. Description: kcat; higher = faster cleavage; RNA array. In outline: (§1)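 Ribozyme variants carrying barcodes were transcribed in situ on sequenced MiSeq chips by E. coli RNA polymerase and tracked at 37 °C with a hybridised Cy3 probe. They were exposed to 40 μM to 10 mM glucosamine-6-phosphate in HEPES/KCl/Mg(OAc)2 buffer. kobs came from exponential decay fits of normalised per-tile medians, and kcat and KM from weighted Michaelis–Menten fits.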

In data set [2] the parent is B1. Briefly: self-cleavage kobs at 640 uM GlcN6P; higher = faster cleavage; RNA array. A digest of the protocol:
as §1

In data set [3] the parent is B1. Briefly: self-cleavage kobs at 10000 uM GlcN6P; higher = faster cleavage; RNA array. In outline: as §1
Data set [4] covers variants of B1. Description: KM; higher = weaker cofactor use; RNA array. A digest of the protocol:
as §1

The variants in data set [5] derive from B1. Briefly: self-cleavage kobs at 2500 uM GlcN6P; higher = faster cleavage; RNA array. In outline:
as §1

Variants of B1 are the subject of data set [6]. Description: self-cleavage kobs at 40 uM GlcN6P; higher = faster cleavage; RNA array. In outline: as §1
Data set [7] covers variants of B1. Description: self-cleavage kobs at 160 uM GlcN6P; higher = faster cleavage; RNA array. A digest of the protocol: as §1

With G7A U55A, in the data set with glucosamine-6-phosphate [1], the kcat was determined as 8.93e-05 ± 9.4e-06 s⁻¹.

Consider C11G C67G, for which the kcat with glucosamine-6-phosphate [1] was determined as 3.76e-05 ± 1.2e-05 s⁻¹. Moreover, the “self-cleavage kobs at 640 uM GlcN6P” value with glucosamine-6-phosphate [2] worked out at 5.1e-05 ± 1.3e-05 s⁻¹.

Take C58U C71A: the kcat with glucosamine-6-phosphate [1] amounted to 7.75e-05 ± 1.6e-05 s⁻¹. In addition, the “self-cleavage kobs at 10000 uM GlcN6P” value with glucosamine-6-phosphate [3] is 2.61e-05 ± 1.2e-05 s⁻¹.

Turning to A15C G41A, the kcat in the data set with glucosamine-6-phosphate [1] worked out at 0.000104 ± 4.7e-06 s⁻¹. In the data set with glucosamine-6-phosphate [4], the KM stood at 744 ± 120 µM. Moreover, the “self-cleavage kobs at 640 uM GlcN6P” value with glucosamine-6-phosphate [2] was 4.65e-05 ± 1.2e-05 s⁻¹. In the data set with glucosamine-6-phosphate [5], the “self-cleavage kobs at 2500 uM GlcN6P” value is 8.56e-05 ± 1.8e-05 s⁻¹. In the data set with glucosamine-6-phosphate [3], the “self-cleavage kobs at 10000 uM GlcN6P” value worked out at 9.45e-05 ± 1.5e-05 s⁻¹.

Regarding U56G C68G, the kcat with glucosamine-6-phosphate [1] is 6.61e-05 ± 1e-05 s⁻¹. Further, the “self-cleavage kobs at 2500 uM GlcN6P” value with glucosamine-6-phosphate [5] was 2.78e-05 ± 1.4e-05 s⁻¹. The “self-cleavage kobs at 10000 uM GlcN6P” value with glucosamine-6-phosphate [3] was determined as 5.46e-05 ± 8.1e-06 s⁻¹.

U30G C71A: in the data set with glucosamine-6-phosphate [1], the kcat came out at 0.00126 ± 0.0004 s⁻¹. For the same variant, the KM with glucosamine-6-phosphate [4] stood at 1140 ± 560 µM. In addition, in the data set with glucosamine-6-phosphate [6], the “self-cleavage kobs at 40 uM GlcN6P” value turned out to be 7.85e-05 ± 1.2e-05 s⁻¹. In addition, the “self-cleavage kobs at 160 uM GlcN6P” value with glucosamine-6-phosphate [7] is 0.000138 ± 2.2e-05 s⁻¹. Besides, in the data set with glucosamine-6-phosphate [2], the “self-cleavage kobs at 640 uM GlcN6P” value was found to be 0.000344 ± 6.7e-05 s⁻¹. The “self-cleavage kobs at 2500 uM GlcN6P” value with glucosamine-6-phosphate [5] worked out at 0.00096 ± 0.00014 s⁻¹. In the data set with glucosamine-6-phosphate [3], the “self-cleavage kobs at 10000 uM GlcN6P” value was determined as 0.00119 ± 0.00018 s⁻¹.

On to C11A C67A, for which the kcat in the data set with glucosamine-6-phosphate [1] was 6.14e-05 ± 1e-05 s⁻¹. Moreover, the “self-cleavage kobs at 640 uM GlcN6P” value in the data set with glucosamine-6-phosphate [2] was 7.25e-05 ± 1.2e-05 s⁻¹. The “self-cleavage kobs at 2500 uM GlcN6P” value in the data set with glucosamine-6-phosphate [5] worked out at 6.18e-05 ± 1.1e-05 s⁻¹. The “self-cleavage kobs at 10000 uM GlcN6P” value with glucosamine-6-phosphate [3] was found to be 5.12e-05 ± 9.8e-06 s⁻¹.

For U56G G59U, the kcat with glucosamine-6-phosphate [1] was 2.54e-05 ± 5.7e-06 s⁻¹. Further, in the data set with glucosamine-6-phosphate [7], the “self-cleavage kobs at 160 uM GlcN6P” value was less than 1e-05 s⁻¹. Also, in the data set with glucosamine-6-phosphate [5], the “self-cleavage kobs at 2500 uM GlcN6P” value was determined as 2.9e-05 ± 1.4e-05 s⁻¹. For the same variant, in the data set with glucosamine-6-phosphate [3], the “self-cleavage kobs at 10000 uM GlcN6P” value is 2.16e-05 ± 1e-05 s⁻¹.

With U65A C68U, the kcat in the data set with glucosamine-6-phosphate [1] is 0.000403 ± 0.00012 s⁻¹. In addition, the “self-cleavage kobs at 40 uM GlcN6P” value in the data set with glucosamine-6-phosphate [6] worked out at 3.81e-05 ± 8.7e-06 s⁻¹. For the same variant, the “self-cleavage kobs at 160 uM GlcN6P” value in the data set with glucosamine-6-phosphate [7] worked out at 0.000111 ± 1.8e-05 s⁻¹. For the same variant, the “self-cleavage kobs at 640 uM GlcN6P” value in the data set with glucosamine-6-phosphate [2] came to 0.000186 ± 2.8e-05 s⁻¹. In addition, the “self-cleavage kobs at 2500 uM GlcN6P” value in the data set with glucosamine-6-phosphate [5] was 0.000287 ± 4.2e-05 s⁻¹. The “self-cleavage kobs at 10000 uM GlcN6P” value in the data set with glucosamine-6-phosphate [3] is 0.000655 ± 8.7e-05 s⁻¹.

For the origin of these results see the supplement of paper PMC7125110.
